Experimental data published in patent publication US20250009852A1, “DEPLETING EGFR AND HER2 OVERCOMES RESISTANCE TO EGFR INHIBITORS IN COLORECTAL CANCER” (Health Research, Inc., priority 2021, published 2025).

Assays:
[1] = Monitoring of mice for signs of adverse effects; type: in vivo; conditions: mice bearing HCT116 or HT29 tumors; aderbasib alone or the combination regimen
Protocol: (§1) SCID mice (C.B.17 SCID) were bred by the Laboratory Animal Shared Resource at Roswell Park Comprehensive Cancer Center. Male mice at 7-8 weeks of age were used. All mouse experiments were approved by the Institutional Animal Care and Use Committee at Roswell Park Comprehensive Cancer Center under protocol 1022M. We established subcutaneous tumors by inoculating 1×10^6 HCT116 cells, 4×10^6 HT29 cells, or 2×10^6 SW48 cells to the flank of each mouse in 100 μl of serum free medium. Colon patient-derived xenograft (PDX) 14650 was established from a liver metastatic lesion in a patient treated at Roswell Park Comprehensive Cancer Center. Tumor fragments (˜20 mm^3) from donor mice were implanted into the flank of each mouse subcutaneously using a trocar. […] Subcutaneous tumor volume was measured using length ×width^2÷2. Tumor volume was measured three times each week. Orthotopic tumor growth was monitored by bioluminescence weekly. Mice were given D-luciferin (150 mg/kg) by ip and anesthetized with isoflurane, and tumor burden was measured by bioluminescence using the IVIS Spectrum In Vivo Imaging System (PerkinElmer). Drug treatment was started when significant tumor growth was detected. […] The mice were closely monitored for sign of adverse effects and weighed three times each week. […]

HRAS, NRAS, KRAS = assay: Western blotting of whole cell lysates: RAS proteins; type: cell-based, human; conditions: 48 h
Protocol: (§2) To prepare whole cell lysates, cells were washed with PBS twice, mixed with 1× cell lysis buffer from Cell Signaling Technology supplemented with 2 mM PMSF and a protease inhibitor cocktail from Roche Applied Science, placed on ice for 10 min, sonicated at 0-4° C. to enhance cell lysis using a Branson Model 450 sonifier, and finally centrifuged at 13,000 g for 10 min at 4° C., and the supernatant fraction is collected as whole cell lysate. Tumor and samples were mixed with RIPA buffer (25 mM Tris-HCl, PH7.6, 150 mM NaCl, 1% Nonidet P-40, 1% sodium deoxycholate, and 0.1% SDS), which was supplemented with 2 mM PMSF, the protease inhibitor cocktail mentioned above, phosphatase inhibitor cocktail 2 and phosphatase inhibitor cocktail 3 from Sigma-Aldrich at 14.3 μl buffer per mg tissue, and homogenized in a Dounce homogenizer. The homogenates were cleared by centrifugation at 13,000 g for 15 min at 4° C.
Protein concentrations in all samples were measured using the BCA Assay Kit. […] Proteins were transferred to polyvinylidene fluoride membrane, probed with specific antibodies, and detected using either Luminata Classico (Millipore) or Luminata Cresendo (Millipore). […] The beads were washed three times with IP buffer, suspended in 2× SDS loading buffer, boiled for 5 min, and analyzed by Western blotting.

[2] = system: EGFR-HER3, EGFR-IGF1R and EGFR-MET heterodimers; assay: Immunoprecipitation and Western blotting of EGFR heterodimers; type: cell-based, human; conditions: 25 nM, 48 h
Protocol: (§3) Protein concentrations in all samples were measured using the BCA Assay Kit. For Western blotting, each sample was mixed with 4× loading dye, heated for 5 min at 95° C., and resolved by SDS-PAGE (8-12.5%). Proteins were transferred to polyvinylidene fluoride membrane, probed with specific antibodies, and detected using either Luminata Classico (Millipore) or Luminata Cresendo (Millipore). For IP, cell lysates (0.5 mg protein/sample) were incubated with a desired antibody overnight at 4° C., followed by incubation of 500 μl sample with 30 μl G-Sepharose beads (2 mg/ml) for 1 h at RT. The beads were washed three times with IP buffer, suspended in 2× SDS loading buffer, boiled for 5 min, and analyzed by Western blotting.

EGFR and HER2 [3] = assay: Western blotting of whole cell lysates: EGFR and HER2; type: cell-based, human; conditions: 25 nM
Protocol: as §2, §3

EGFR and HER2 [4] = target: T1, EGFR and HER2 (Homo sapiens, UniProt P00533); assay: as above; type: cell-based; conditions: HCT116, HT29 and SW48 cells, medium with 10% serum, 25 nM
T1 construct: Both EGFR and HER2 were expressed in HCT116, HT29, and SW48 cells; endogenous in cells; host or cells: HCT116, HT29, SW48 (SW620 lacks both)
Protocol: as §2, §3

[5] = system: HER3, MET, IGF1R, SRC, AKT, ERK, MEK; assay: Western blotting of whole cell lysates: other RTKs and downstream signaling proteins; type: cell-based, human; conditions: 25 nM, 48 h
Protocol: as §2, §3

SW48 tumors = assay: Subcutaneous SW48 tumors in SCID mice; type: in vivo, mouse; conditions: sc SW48 tumors; EP 0.5 mg/kg ip daily plus PEPD^G278D 4 mg/kg ip three times weekly, or cetuximab 15 mg/kg ip twice weekly
Protocol: as §1

EGFR = assay: Immunofluorescence staining and confocal microscopy of EGFR trafficking in SW48 cells; type: cell-based, human; conditions: serum-free medium, 25 nM, up to 6 h
Protocol: SW48 cells were grown in chamber slides (4×10^4 cells/well) overnight with or without subsequent treatment with PEPD^G278D (25 nM) and/or chloroquine (25 μM) for up to 6 h. The cells were then washed with ice-cold PBS, fixed with 4% paraformaldehyde for 20 min at room temperature (RT), washed again with ice-cold PBS and blocked with 1% BSA in PBS for 1 h at RT. The cells were then incubated with an EGFR antibody, a His tag antibody for detection of PEPD^G278D, and/or a LAMP1 antibody overnight at 4° C., washed with PBS, incubated with a secondary antibody conjugated to Alexa-Fluor 488 or Alexa-Fluor 647 antibody for 1 h at RT and washed again with PBS. The cells were then examined with a BZ-X700 fluorescence microscope (Keyence) with a S PL FL ELWD ADM 40xC objective. Merged images from Z-stack were organized using the ImageJ software (NIH Image).

Molecule	signs of toxicity [1]	expression of HRAS and NRAS (HRAS, NRAS, KRAS; HCT116, HT29 and SW48 cells, 25 nM)	expression of WT or mutated KRAS (HRAS, NRAS, KRAS; PEPD^G278D 25 nM, cetuximab 275 nM)	EGFR association with HER3, MET or IGF1R [2]	HER2 level (EGFR and HER2 [3]; HCT116, HT29 and SW48 cells, medium with 10% serum, 3 h)	expression and tyrosine phosphorylation of EGFR and HER2 (EGFR and HER2 [3]; SW48, HCT116 and HT29 cells, 48 h)	EGFR and HER2 level (EGFR and HER2 [3]; serum-free medium, 3 h)	EGFR level (EGFR and HER2 [4]; 6 h)	EGFR level (EGFR and HER2 [4]; 24 h)	expression of other signaling proteins (HER3, MET, IGF1R, SRC, AKT, ERK) ([5]; HCT116, HT29 and SW48 cells)	phosphorylation of other signaling proteins (HER3, MET, IGF1R, SRC, AKT, ERK) ([5]; HCT116, HT29 and SW48 cells)	MEK phosphorylation ([5]; HCT116 and HT29 cells)	phosphorylation or expression of HER3, MET, IGF1R, SRC, AKT, and ERK ([5]; SW620 cells that lack EGFR and HER2)	inhibition of tumor growth at the end of treatment (SW48 tumors) [%]	EGFR internalization and lysosomal degradation (EGFR)
COC(=O)N1CC2(CC2)C[C@H](C(=O)NO)[C@H]1C(=O)N1CC=C(c2ccccc2)CC1 [aderbasib]	did not show signs of toxicity	–	–	–	–	–	–	–	–	–	–	–	–	–	–
PEPD^G278D: recombinant and enzymatically inactive mutant of human peptidase D (PEPD), with replacement of glycine 278 by aspartic acid (protein, left off: small tags and cut ends) AAATGPSFWLGNETLKVPLALFALNRQRLCERLRKNPAVQAGSIVVLQGGEETQRYCTDTGVLFLQESFFHWAFGVTEPGCYGVIDVDTGKSTLFVPRLPASHATWMGKIHSKEHFKEKYAVDDVQYVDEIASVLTSQKPSVLLTLRGVNTDSGSVCREASFDGISKFEVNNTILHPEIVESRVFKTDMELEVLRYTNKISSEAHREVMKAVKVGMKEYGLESLFEHYCYSRGGMRHSSYTCICGSGENSAVLHYGHAGAPNDRTIQNGDMCLFDMDGEYYSVASDITCSFPRNGKFTADQKAVYEAVLLSSRAVMGAMKPGDWWPDIDRLADRIHLEELAHMGILSGSVDAMVQAHLGAVFMPHGLGHFLGIDVHDVGGYPEGVERIDEPGLRSLRTARHLQPGMVLTVEPGIYFIDHLLDEALADPARASFLNREVLQRFRGFGGVRIEEDVVVIDSGIELLTCVPRTVEEIEACMAGCDKAFTPFSGPK	–	strongly downregulates	neither PEPD^G278D nor cetuximab regulated the expression	disruption of EGFR association	decreased markedly	obliterated	marked decrease	no decrease	profound decrease	had no effect on the expression	markedly decreased their phosphorylation	markedly decreased MEK phosphorylation	had no effect	91.5	induces EGFR internalization and lysosomal degradation
